Measured values: patent US20050074865A1

Biological target: recombinant human TNFα (RDI) (human) (UniProt P01375)
Assay: cell-based or functional assay

recombinant human TNFα (RDI) (human), sequence (P01375 77-233 limits assumed): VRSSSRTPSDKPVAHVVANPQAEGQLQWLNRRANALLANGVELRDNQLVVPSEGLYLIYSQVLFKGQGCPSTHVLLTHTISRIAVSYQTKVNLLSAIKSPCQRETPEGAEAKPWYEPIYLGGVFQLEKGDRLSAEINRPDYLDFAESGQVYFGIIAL
TRYPSIN (commercial protease of the screen) (enzyme), sequence (P00760 24-246): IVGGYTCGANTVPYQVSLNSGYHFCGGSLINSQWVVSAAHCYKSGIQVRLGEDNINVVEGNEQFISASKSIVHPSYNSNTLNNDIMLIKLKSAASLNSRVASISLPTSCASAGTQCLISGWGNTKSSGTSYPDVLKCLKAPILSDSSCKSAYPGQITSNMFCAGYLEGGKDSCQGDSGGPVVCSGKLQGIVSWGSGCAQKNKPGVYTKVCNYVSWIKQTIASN
MMP12 (enzyme), sequence (P39900 106-470): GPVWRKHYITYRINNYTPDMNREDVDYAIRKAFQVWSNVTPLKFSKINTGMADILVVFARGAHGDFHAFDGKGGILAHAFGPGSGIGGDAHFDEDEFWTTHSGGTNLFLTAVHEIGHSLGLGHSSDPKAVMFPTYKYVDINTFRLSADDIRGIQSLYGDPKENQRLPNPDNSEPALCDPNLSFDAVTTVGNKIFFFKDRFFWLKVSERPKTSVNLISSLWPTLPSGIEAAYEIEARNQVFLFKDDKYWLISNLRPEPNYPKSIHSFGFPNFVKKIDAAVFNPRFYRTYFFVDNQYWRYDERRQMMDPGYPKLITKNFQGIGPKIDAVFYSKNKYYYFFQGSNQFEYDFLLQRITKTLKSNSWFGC

**Q.** CHYMOTRYPSIN (enzyme) was tested. Which log reduction in TNFα activity at the 50% survival level, L929 cytotoxicity bioassay after overnight digestion did it give?
**A.** Its log reduction in TNFα activity at the 50% survival level, L929 cytotoxicity bioassay after overnight digestion is 2.74 log.

**Q.** How did the log reduction in TNFα activity at the 50% survival level, L929 cytotoxicity bioassay after overnight digestion turn out when ELASTASE (enzyme) was run?
**A.** Its log reduction in TNFα activity at the 50% survival level, L929 cytotoxicity bioassay after overnight digestion is 1.45 log.

**Q.** Which log reduction in TNFα activity at the 50% survival level, L929 cytotoxicity bioassay after overnight digestion does the source give for MMP12 (enzyme) here?
**A.** Its log reduction in TNFα activity at the 50% survival level, L929 cytotoxicity bioassay after overnight digestion is 0.65 log.

**Q.** MT1-MMP (enzyme) was tested. Which log reduction in TNFα activity at the 50% survival level, L929 cytotoxicity bioassay after overnight digestion did it give?
**A.** The log reduction in TNFα activity at the 50% survival level, L929 cytotoxicity bioassay after overnight digestion was 0.86 log.

**Q.** “TRYPSIN (commercial protease of the screen) (enzyme)” was tested. Which log reduction in TNFα activity at the 50% survival level, L929 cytotoxicity bioassay after overnight digestion did it give?
**A.** The log reduction in TNFα activity at the 50% survival level, L929 cytotoxicity bioassay after overnight digestion was 2.3 log.

**Q.** Tryptase (enzyme) was tested. Which log reduction in TNFα activity at the 50% survival level, L929 cytotoxicity bioassay after overnight digestion did it give?
**A.** The log reduction in TNFα activity at the 50% survival level, L929 cytotoxicity bioassay after overnight digestion was 0.62 log.
